Measured values published in patent EP0980526B1, “INHIBITORS OF NUCLEAR PROTEIN/NUCLEAR RECEPTOR INTERACTION” (IMPERIAL CANCER RESEARCH TECHNOLOGY LIMITED, priority 1997, dated 1998).
One block for each substance: values may come before it.

What was measured:
[1] = target: mouse ER (expressed in transfected Hela cells) (mouse) (UniProt P19785); test: cell-based or functional assay
[2] = target: AAD-ER (acidic activation domain fused to the LBD of the wild-type ER) (human) (UniProt P03372); test: yeast two-hybrid
[3] = target: AAD-ER (acidic activation domain fused to the LBD of the wild-type ER) (human) (UniProt P03372); test: cell-based or functional assay

Sequence of AAD-ER (acidic activation domain fused to the LBD of the wild-type ER) (human) (P03372 282-595 limits assumed): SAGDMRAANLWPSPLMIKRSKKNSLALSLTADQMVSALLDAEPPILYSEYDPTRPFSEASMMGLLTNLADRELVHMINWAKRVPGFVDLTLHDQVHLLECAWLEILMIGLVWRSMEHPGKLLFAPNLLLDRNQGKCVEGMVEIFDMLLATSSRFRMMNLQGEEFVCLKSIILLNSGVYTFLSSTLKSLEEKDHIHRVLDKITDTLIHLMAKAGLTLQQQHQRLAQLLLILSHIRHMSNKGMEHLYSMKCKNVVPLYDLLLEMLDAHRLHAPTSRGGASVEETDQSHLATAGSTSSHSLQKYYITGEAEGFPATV
Sequence of DBD-SRC1a 45-53 (P03372 176-282, form in doubt): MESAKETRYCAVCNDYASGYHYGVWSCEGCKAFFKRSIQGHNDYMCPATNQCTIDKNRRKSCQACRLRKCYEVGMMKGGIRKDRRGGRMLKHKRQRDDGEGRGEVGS
Sequence of mouse ER (expressed in transfected Hela cells) (mouse) (P19785 whole entry, the tested form may be a part): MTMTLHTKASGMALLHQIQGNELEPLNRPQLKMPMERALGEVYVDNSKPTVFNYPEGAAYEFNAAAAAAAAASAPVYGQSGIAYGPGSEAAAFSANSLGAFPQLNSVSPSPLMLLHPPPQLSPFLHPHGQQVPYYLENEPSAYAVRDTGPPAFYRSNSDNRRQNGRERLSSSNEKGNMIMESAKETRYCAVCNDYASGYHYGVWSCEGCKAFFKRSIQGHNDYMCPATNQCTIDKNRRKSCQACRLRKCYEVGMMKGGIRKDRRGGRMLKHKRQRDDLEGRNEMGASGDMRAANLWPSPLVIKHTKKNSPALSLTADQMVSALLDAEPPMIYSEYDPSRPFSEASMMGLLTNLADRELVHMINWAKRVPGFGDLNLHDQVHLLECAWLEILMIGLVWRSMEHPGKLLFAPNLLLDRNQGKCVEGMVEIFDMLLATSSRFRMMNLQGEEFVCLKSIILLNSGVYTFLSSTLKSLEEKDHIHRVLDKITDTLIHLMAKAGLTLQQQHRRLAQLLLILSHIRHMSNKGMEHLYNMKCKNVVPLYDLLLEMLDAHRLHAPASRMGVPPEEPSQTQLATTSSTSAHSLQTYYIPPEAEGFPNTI

activity of ER on the reporter 2ERE-pS2-CAT in transiently transfected Hela cells [1]: < 50%
Substance: SRC1e M123 (from UniProt Q15788 1-1399)

Substance: DBD-SRC1a 45-53 (from UniProt P03372 176-282)
fold interaction (two-hybrid reporter) [2]: 6 fold

Substance: DBD-RIP140 935-943 with valine 935 mutated to alanine (from UniProt P03372 176-282; P48552 935-943)
reporter activity in the presence of ligand (β-galactosidase, yeast two hybrid) (fold reduction) [3]: 10
